Data on 2 molecules can be found in patent US20240309099A1 (SYSTIMMUNE, published 2024).

Test [1] has as its target T1, His-tagged human EGFR (expressed/purified in-house) (human, UniProt P00533 25-645, limits assumed).
T1 construct: Made in-house; also called ErbB1; HER1; not shown: His tag
The test can be described thus: BLI (Octet384), antibody captured on AHC tips, His-tagged EGFR 0-100 nM in solution, global 1:1 fit.

The target of test [2] is human HER3 (purchased from Acro Bio) (human, UniProt P21860 20-643). The test can be described thus: BLI (Octet384), antibody captured on AHC tips, HER3 (Acro Bio) 0-100 nM in solution, global 1:1 fit.

B1: SI-1X26 (bispecific antibody)
heavy: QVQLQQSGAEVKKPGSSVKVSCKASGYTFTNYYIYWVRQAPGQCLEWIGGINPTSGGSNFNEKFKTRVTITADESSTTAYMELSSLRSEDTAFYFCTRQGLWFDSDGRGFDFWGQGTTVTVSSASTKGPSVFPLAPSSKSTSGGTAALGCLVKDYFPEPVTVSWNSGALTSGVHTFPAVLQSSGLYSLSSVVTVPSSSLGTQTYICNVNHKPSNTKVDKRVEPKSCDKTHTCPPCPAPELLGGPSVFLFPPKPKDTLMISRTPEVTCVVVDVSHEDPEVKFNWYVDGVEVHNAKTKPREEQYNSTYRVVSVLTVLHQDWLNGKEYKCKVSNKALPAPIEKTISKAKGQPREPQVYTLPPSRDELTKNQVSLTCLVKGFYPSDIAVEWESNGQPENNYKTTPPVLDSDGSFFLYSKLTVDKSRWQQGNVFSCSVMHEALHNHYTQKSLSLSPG
light: DIQMTQSPSSLSASVGDRVTITCRSSQNIVHSNGNTYLDWYQQTPGKAPKLLIYKVSNRFSGVPSRFSGSGSGTDFTFTISSLQPEDIATYYCFQYSHVPWTFGCGTKLQITRTVAAPSVFIFPPSDEQLKSGTASVVCLLNNFYPREAKVQWKVDNALQSGNSQESVTEQDSKDSTYSLSSTLTLSKADYEKHKVYACEVTHQGLSSPVTKSFNRGECGGGGSGGGGSGGGGSQVQLQESGGGLVKPGGSLSLSCAASGFTFSSYWMSWVRQAPGKGLEWVANINRDGSASYYVDSVKGRFTISRDDAKNSLYLQMNSLRAEDTAVYYCARDRGVGYFDLWGRGTLVTVSSGGGGSGGGGSGGGGSQSALTQPASVSGSPGQSITISCTGTSSDVGGYNFVSWYQQHPGKAPKLMIYDVSDRPSGVSDRFSGSKSGNTASLIISGLQADDEADYYCSSYGSSSTHVIFGGGTKVTVL
notes: scFv on the C-terminus of the light chain; also called EGFRxHER3 bispecific antibody; nimotuzumab-based bispecific antibody
On to B1, for which, in test [1], the affinity, expressed as Kd, was 11.4 nM; the Response is 0.194; the koff came out at 0.000627 s⁻¹; the on-rate constant (kon) came out at 55100 M⁻¹ s⁻¹. In test [2], this molecule returned a Kd of 151 nM, a Response of 0.294, a koff of 0.0308 s⁻¹ and a kon of 204000 M⁻¹ s⁻¹.

B2: SI-1X4 (bispecific antibody)
heavy: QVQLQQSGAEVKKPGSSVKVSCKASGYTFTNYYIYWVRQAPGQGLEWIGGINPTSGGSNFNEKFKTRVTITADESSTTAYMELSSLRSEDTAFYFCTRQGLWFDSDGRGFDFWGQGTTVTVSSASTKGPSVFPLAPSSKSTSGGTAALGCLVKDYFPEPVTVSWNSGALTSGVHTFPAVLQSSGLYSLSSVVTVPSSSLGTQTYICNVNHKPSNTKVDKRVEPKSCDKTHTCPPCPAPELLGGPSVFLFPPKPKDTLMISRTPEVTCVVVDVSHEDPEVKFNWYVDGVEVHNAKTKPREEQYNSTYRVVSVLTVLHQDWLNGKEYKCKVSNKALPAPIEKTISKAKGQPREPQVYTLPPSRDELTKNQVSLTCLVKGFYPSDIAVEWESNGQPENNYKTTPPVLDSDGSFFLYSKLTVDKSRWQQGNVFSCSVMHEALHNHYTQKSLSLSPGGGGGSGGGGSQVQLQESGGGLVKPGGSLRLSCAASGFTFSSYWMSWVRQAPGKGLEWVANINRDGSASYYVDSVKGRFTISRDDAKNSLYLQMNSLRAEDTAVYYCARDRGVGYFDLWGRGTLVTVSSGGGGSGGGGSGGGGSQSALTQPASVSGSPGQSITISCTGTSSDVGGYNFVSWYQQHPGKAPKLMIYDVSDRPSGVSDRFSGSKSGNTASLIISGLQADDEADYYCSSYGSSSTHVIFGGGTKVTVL
light: DIQMTQSPSSLSASVGDRVTITCRSSQNIVHSNGNTYLDWYQQTPGKAPKLLIYKVSNRFSGVPSRFSGSGSGTDFTFTISSLQPEDIATYYCFQYSHVPWTFGQGTKLQITRTVAAPSVFIFPPSDEQLKSGTASVVCLLNNFYPREAKVQWKVDNALQSGNSQESVTEQDSKDSTYSLSSTLTLSKADYEKHKVYACEVTHQGLSSPVTKSFNRGEC
notes: Tetravalent IgG-scFv: anti-EGFR Fab with nimotuzumab variable regions, anti-HER3 scFv at the C-terminus of the heavy chain; also called EGFRxHER3 bispecific antibody; nimotuzumab-based bispecific antibody
In test [1], B2 displayed a Kd of 23.8 nM, a Response of 0.171, a koff of 0.00171 s⁻¹ and a kon of 71600 M⁻¹ s⁻¹. In test [2], the Kd turned out to be 156 nM, the Response turned out to be 0.264, the koff was 0.0281 s⁻¹ and the kon worked out at 180000 M⁻¹ s⁻¹.

Broadly, the Kd is the constant that tells how readily two partners part at equilibrium. Broadly, the koff is the rate constant with which the complex falls apart. The kon is the second-order rate constant of association.
